Reference: paper PMC7116816 (Nature cancer, 2020)
Values belong to the binder of their own block, whether it stands above or below them.

Columns and labels:
[1] = target: deglycosylated human CD25 (SinoBiological) (Homo sapiens, UniProt P01589, deglycosylated with N-glycosidase F); test: crystal structure
[2] = target: human CD25 on SU-DHL1 tumor cells (human CD25+) (Homo sapiens, UniProt P01589); test: flow cytometry on cells
[3] = target: cynomolgus CD25 on HSC-F cells (cynomolgus CD25+) (Macaca fascicularis, UniProt H6WS54); test: flow cytometry on cells

Chain of human CD25 on SU-DHL1 tumor cells (human CD25+) (P01589 22-272): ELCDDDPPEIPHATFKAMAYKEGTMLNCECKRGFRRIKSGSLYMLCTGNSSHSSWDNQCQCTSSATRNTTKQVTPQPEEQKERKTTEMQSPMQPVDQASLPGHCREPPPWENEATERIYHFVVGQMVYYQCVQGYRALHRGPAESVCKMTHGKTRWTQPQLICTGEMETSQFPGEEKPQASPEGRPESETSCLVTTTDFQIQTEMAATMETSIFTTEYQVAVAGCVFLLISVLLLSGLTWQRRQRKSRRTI
Chain of deglycosylated human CD25 (SinoBiological) (P01589 22-213): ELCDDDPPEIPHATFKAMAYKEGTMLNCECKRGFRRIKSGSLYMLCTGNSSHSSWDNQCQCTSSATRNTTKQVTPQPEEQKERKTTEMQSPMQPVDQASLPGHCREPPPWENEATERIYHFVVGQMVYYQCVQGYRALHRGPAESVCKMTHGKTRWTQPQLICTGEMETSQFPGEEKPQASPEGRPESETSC

binding result [1]: binds
B1: Fab fragment of RG6292 (Fab, V domains shown)
VH: QVQLVQSGAEVKKPGSSVKVSCKASGGTFSSLAISWVRQAPGQGLEWMGGIIPIFGTANYAQKFQGRVTITADESTSTAYMELSSLRSEDTAVYYCARGGSVSGTLVDFDIWGQGTMVTVSS
VL: not shown

binding result [2]: binds
B2: RG6292 (FF), the fully fucosylated version of RG6292 (antibody, V domains shown)
VH: B1 VH
VL: not shown

binding result [3]: binds
B3: RG6292, a-fucosylated human IgG1 mAb (anti-human CD25^NIB) (antibody, V domains shown)
VH: B1 VH
VL: not shown
